The values that follow come from the RNAGym collection of RNA variant scans (doi:10.1021/acssynbio.7b00057).

B1: Pistol ribozyme (parent)
chain: GGGUCGUUGUUCCAUAAUCGCGUGGAUAUGGCACGCAAGUUUCUACCGGGCACCGUAAAUGUCCGACUGGAGCCGUUCGGGCGGCUAUAAACAGACCUCAGGCCCGAAGCGUGGCGGCACCUGCCGCCGGUGGUAAAAAAGAUCGGAAGAGCACACGUCU

Variants of B1 are the subject of the data set. Briefly: aptazyme ON/OFF ratio, guanine; higher = stronger switching; co-transcriptional cleavage with and without guanine.
GGGUCGAGUCGAGAUAAUCGCGUGGAUAUGGCACGCAAGUUUCUACCGGGCACCGUAAAUGUCCGACUGGAGCCGUUCGGGCGGCUAUAAACAGACCUCAGGCCCGAAGCGUGGCGGCACCUGCCGCCGGUGGUAAAAAAGAUCGGAAGAGCACACGUCU [U7A U8G G9U U10C U11G C12A C13G]: the “aptazyme ON/OFF ratio” value was found to be 1.41. Consider GGGUCGGGAGUGCAUAAUCGCGUGGAUAUGGCACGCAAGUUUCUACCGGGCACCGUAAAUGUCCGACUGGAGCCGUUCGGGCGGCUAUAAACAGACCUCAGGCCCGAAGCGUGGCGGCACCUGCCGCCGGUGGUAAAAAAGAUCGGAAGAGCACACGUCU [U7G U8G G9A U10G C12G], for which the “aptazyme ON/OFF ratio” value amounted to 1.28.

In the case of GGGUCGGUGACACAUAAUCGCGUGGAUAUGGCACGCAAGUUUCUACCGGGCACCGUAAAUGUCCGACUGGAGCCGUUCGGGCGGCUAUAAACAGACCUCAGGCCCGAAGCGUGGCGGCACCUGCCGCCGGUGGUAAAAAAGAUCGGAAGAGCACACGUCU [U7G U10A U11C C12A], the “aptazyme ON/OFF ratio” value worked out at 1.16. Next, GGGUCGGACUACUAUAAUCGCGUGGAUAUGGCACGCAAGUUUCUACCGGGCACCGUAAAUGUCCGACUGGAGCCGUUCGGGCGGCUAUAAACAGACCUCAGGCCCGAAGCGUGGCGGCACCUGCCGCCGGUGGUAAAAAAGAUCGGAAGAGCACACGUCU [U7G U8A G9C U11A C13U]: 1.04.

For the variant GGGUCGCGGUUUUAUAAUCGCGUGGAUAUGGCACGCAAGUUUCUACCGGGCACCGUAAAUGUCCGACUGGAGCCGUUCGGGCGGCUAUAAACAGACCUCAGGCCCGAAGCGUGGCGGCACCUGCCGCCGGUGGUAAAAAAGAUCGGAAGAGCACACGUCU [U7C U8G C12U C13U], the “aptazyme ON/OFF ratio” value was found to be 1.3. Under GGGUCGUAGUGUAAUAAUCGCGUGGAUAUGGCACGCAAGUUUCUACCGGGCACCGUAAAUGUCCGACUGGAGCCGUUCGGGCGGCUAUAAACAGACCUCAGGCCCGAAGCGUGGCGGCACCUGCCGCCGGUGGUAAAAAAGAUCGGAAGAGCACACGUCU [U8A U11G C12U C13A] stands 1.14; under GGGUCGAAUGCUAAUAAUCGCGUGGAUAUGGCACGCAAGUUUCUACCGGGCACCGUAAAUGUCCGACUGGAGCCGUUCGGGCGGCUAUAAACAGACCUCAGGCCCGAAGCGUGGCGGCACCUGCCGCCGGUGGUAAAAAAGAUCGGAAGAGCACACGUCU [U7A U8A G9U U10G U11C C12U C13A], 1.09; under GGGUCGUAGCGCCAUAAUCGCGUGGAUAUGGCACGCAAGUUUCUACCGGGCACCGUAAAUGUCCGACUGGAGCCGUUCGGGCGGCUAUAAACAGACCUCAGGCCCGAAGCGUGGCGGCACCUGCCGCCGGUGGUAAAAAAGAUCGGAAGAGCACACGUCU [U8A U10C U11G], 1.18.

Turning to GGGUCGACAUUUAAUAAUCGCGUGGAUAUGGCACGCAAGUUUCUACCGGGCACCGUAAAUGUCCGACUGGAGCCGUUCGGGCGGCUAUAAACAGACCUCAGGCCCGAAGCGUGGCGGCACCUGCCGCCGGUGGUAAAAAAGAUCGGAAGAGCACACGUCU [U7A U8C G9A C12U C13A], the “aptazyme ON/OFF ratio” value amounted to 1.07.

Take GGGUCGGUCAUACAUAAUCGCGUGGAUAUGGCACGCAAGUUUCUACCGGGCACCGUAAAUGUCCGACUGGAGCCGUUCGGGCGGCUAUAAACAGACCUCAGGCCCGAAGCGUGGCGGCACCUGCCGCCGGUGGUAAAAAAGAUCGGAAGAGCACACGUCU [U7G G9C U10A C12A]: the “aptazyme ON/OFF ratio” value came to 1.43.

In the case of GGGUCGGUCUUUUAUAAUCGCGUGGAUAUGGCACGCAAGUUUCUACCGGGCACCGUAAAUGUCCGACUGGAGCCGUUCGGGCGGCUAUAAACAGACCUCAGGCCCGAAGCGUGGCGGCACCUGCCGCCGGUGGUAAAAAAGAUCGGAAGAGCACACGUCU [U7G G9C C12U C13U], the “aptazyme ON/OFF ratio” value worked out at 1.33. As for GGGUCGACUGCUUAUAAUCGCGUGGAUAUGGCACGCAAGUUUCUACCGGGCACCGUAAAUGUCCGACUGGAGCCGUUCGGGCGGCUAUAAACAGACCUCAGGCCCGAAGCGUGGCGGCACCUGCCGCCGGUGGUAAAAAAGAUCGGAAGAGCACACGUCU [U7A U8C G9U U10G U11C C12U C13U], the “aptazyme ON/OFF ratio” value was determined as 1.09. Under GGGUCGUUACAGGAUAAUCGCGUGGAUAUGGCACGCAAGUUUCUACCGGGCACCGUAAAUGUCCGACUGGAGCCGUUCGGGCGGCUAUAAACAGACCUCAGGCCCGAAGCGUGGCGGCACCUGCCGCCGGUGGUAAAAAAGAUCGGAAGAGCACACGUCU [G9A U10C U11A C12G C13G] stands 1.31; under GGGUCGUUGGUGGAUAAUCGCGUGGAUAUGGCACGCAAGUUUCUACCGGGCACCGUAAAUGUCCGACUGGAGCCGUUCGGGCGGCUAUAAACAGACCUCAGGCCCGAAGCGUGGCGGCACCUGCCGCCGGUGGUAAAAAAGAUCGGAAGAGCACACGUCU [U10G C12G C13G], 1.09.

Regarding GGGUCGGCACGUUAUAAUCGCGUGGAUAUGGCACGCAAGUUUCUACCGGGCACCGUAAAUGUCCGACUGGAGCCGUUCGGGCGGCUAUAAACAGACCUCAGGCCCGAAGCGUGGCGGCACCUGCCGCCGGUGGUAAAAAAGAUCGGAAGAGCACACGUCU [U7G U8C G9A U10C U11G C12U C13U], the “aptazyme ON/OFF ratio” value turned out to be 1.18. Under GGGUCGGUAACGUAUAAUCGCGUGGAUAUGGCACGCAAGUUUCUACCGGGCACCGUAAAUGUCCGACUGGAGCCGUUCGGGCGGCUAUAAACAGACCUCAGGCCCGAAGCGUGGCGGCACCUGCCGCCGGUGGUAAAAAAGAUCGGAAGAGCACACGUCU [U7G G9A U10A U11C C12G C13U] stands 1.18; under GGGUCGUCGCAAAAUAAUCGCGUGGAUAUGGCACGCAAGUUUCUACCGGGCACCGUAAAUGUCCGACUGGAGCCGUUCGGGCGGCUAUAAACAGACCUCAGGCCCGAAGCGUGGCGGCACCUGCCGCCGGUGGUAAAAAAGAUCGGAAGAGCACACGUCU [U8C U10C U11A C12A C13A], 1.35; under GGGUCGACCCGCCAUAAUCGCGUGGAUAUGGCACGCAAGUUUCUACCGGGCACCGUAAAUGUCCGACUGGAGCCGUUCGGGCGGCUAUAAACAGACCUCAGGCCCGAAGCGUGGCGGCACCUGCCGCCGGUGGUAAAAAAGAUCGGAAGAGCACACGUCU [U7A U8C G9C U10C U11G], 1.03.
